Measured values reported in patent US20260266833A1.
Substitutions are numbered along the chain they refer to. Names and notes keep the numbering of the source.

B1: Cbx7.V1 chromodomain (tags removed) (designed binder)
chain: SAIGDDIFAVESIRKKRVRKGKVEYLVKWEGWPLEYSTWEPEEHILDPRLVMAYEEKEERDRASGYRKRGPK
B2: Cbx7 Q9D chromodomain (tags removed) (designed binder)
chain: B1 chain with D5E, I7V, E30K, L34P, E35K
B3: Cbx7 K33E chromodomain (tags removed) (designed binder)
chain: B1 chain with D5E, D6Q, I7V, L34P, E35K
B4: Cbx7.wt chromodomain (tags removed), O95931 4-75 (protein)
chain: B1 chain with D5E, D6Q, I7V, E30K, L34P, E35K
B5: Cbx7.VD chromodomain (tags removed) (designed binder)
chain: B1 chain with D5E, I7V, L34P, E35K
B6: Cbx2.VD chromodomain (tags removed) (designed binder)
chain: GEDVFAAECILSKRLRKGKLEYLVKWEGWSSKHNSWEPEENILDPRLLLAFQKKEHEKEVQNR
B7: Cbx8.VD chromodomain (tags removed) (designed binder)
chain: GEDVFAAEALLKRRIRKGRMEYLVKWEGWSQKYSTWEPEENILDARLLAAFEEREREMELYGP
B8: Cbx7.V1 back-mutant E38K, His6- and Flag-tagged (designed binder, not shown: small tags and cut ends)
chain: B1 chain with E35K
B9: Cbx7.V1 back-mutant E33K, His6- and Flag-tagged (designed binder, not shown: small tags and cut ends)
chain: B1 chain with E30K
B10: Cbx7.V1 back-mutant D8E, His6- and Flag-tagged (designed binder, not shown: small tags and cut ends)
chain: B1 chain with D5E
B11: Cbx7.V1 back-mutant I10V, His6- and Flag-tagged (designed binder, not shown: small tags and cut ends)
chain: B1 chain with I7V
B12: Cbx7.V1 back-mutant L37P, His6- and Flag-tagged (designed binder, not shown: small tags and cut ends)
chain: B1 chain with L34P
B13: Cbx7.V1 chromodomain, His6- and Flag-tagged (designed binder, not shown: small tags and cut ends)
chain: B1 chain

target: H3K9me3 peptide; assay: fluorescence polarization, FITC-peptide 0.5 nM

Kd [µM] | Binder
7 | B1
10 | B2
20 | B3
30 | B4
8 | B5
5 | B6
20 | B7

target: H3K9me3 peptide; assay: BLI, biotinylated peptide on streptavidin tips, steady state

Kd [µM] | Binder
2 | B8
10 | B9
5 | B10
3.5 | B11
3 | B12
4.5 | B13

target: H3K9me3 peptide; assay: ITC, peptide titrated into the chromodomain, 25 C

Kd [µM] | Binder
7 | B1
